{"source": "patent US10155985B2", "about": "“Evaluation of eosinophilic esophagitis” (CHILDREN'S HOSPITAL MEDICAL CENTER, priority 2004, dated 2018)", "molecules": {"B1": {"name": "SEQ_ID_#840 (nucleic acid, listed as Homo sapiens)", "DNA": "TACCACACATCTTCTTTATTAATGCATTGACAATCAGTGAAGACAATGAAAACCCACCACTTTTGTCCGTGAACTGAGAAAGAAAATGGCAATGTCATATGGCATTAATGATGCATGAGATCTATGGGTGTAGTGTCACGTCTAGGCGTGTAGTAATCCAGTCTTCGGCCTTACTCCAGGGAGAAAGATTCAGCTTTGTTACTTTCCAGTCACTCTCTCCCGTAACACAGCACCAAGACCGTTTAAAGCACTTAATTAATTCACTTCAGCTTCGCTGGAGAGGTCTCAGGGTTCCCGAGACTCCATTACATAATATCTTTCACAAAGTCTATTCCCAGCTCGAATGGAAGATGGATTCTCATCCAGTGTGCGG"}, "B2": {"name": "SEQ_ID_#901 (nucleic acid, listed as Homo sapiens)", "DNA": "CTCCTCGCCCTCCCCACCGACATCATGCTCCAGTTCCTGCTTGGATTTACACTGGGCAACGTGGTTGGAATGTATCTGGCTCAGAACTATGAT", "modifications": "chemistry not fully specified; the letters are possibly those of the target site"}, "B3": {"name": "SEQ_ID_#906 (nucleic acid, listed as Homo sapiens)", "DNA": "TGCTTTTGTTGTTGTTTTTAATTTAAAAAGACAAAATTGTTCGCCTTGTATAGAAGTAGATACAGCTTAGAGAGCCAAGGTAACAAGAGGGGAAAAGTTTGTGTTGTCTGGTACTTTTGAGGGAGTCAGAAGCCTAAAGGGAGGCTCTAACTCATGATTCTCAGAAGACAACTGTTGTCAACAGTTCAAATGAGAACTGAACGGCCACACTCCTGCAGCTGAAAGGAGTCAATGCGAGCTGAGTTGCTCTCACCGAACAGAGTGCGTTCCCCGGGGAGGCAGGGAAAGGCCGGCTTGCACCTGCTCTGTCACCCAGCTCCACTCTTAGGACAGAAGAGGTCTGGAAAATGTCTGGG"}, "B4": {"name": "SEQ_ID_#909 (nucleic acid, listed as Homo sapiens)", "DNA": "B3 DNA"}, "B5": {"name": "SEQ_ID_#915 (nucleic acid, listed as Homo sapiens)", "DNA": "CAATAGGAGAAGCCAAGAAACGCAGATGCCGATGCTTAATCAACTCCGTCTCTCCCTCTAGTGACTCGGGGATAGCTGCCCTGATGCCAAGGCGATTGTCTTCTGGAAGCAGCCACGCCGTGTGAGGTTCCTCATCACTGCCCTGCATCTCCCTGCGAGCTCTCGGGGATAATTGCAAAATCACGTTTGATTCCAGGGAGCAGAAAGCAGCAGGAGCCGTGAATTCTCCAACTCTTAACTGGTCCTCGACTGAGCCACTTTTCCCTGCCCACCCATCCCTGTGGCGGATTCATTACAGTTATCCAAAGCCGGTTTTAACTTTGCTCCCCCTGGCTCAGAAGTCTGTCAGTGGGTCCTGAGCGGTTCACCATTCAAGTTTATTCCTATCAGCCTGGAATACAATGCTCTATCTG"}, "B6": {"name": "SEQ_ID_#917 (nucleic acid, listed as Homo sapiens)", "DNA": "TTGTTTGGAAAGATGAAAAATTTATTAGAAAAGATCTTTAAATGGCTTTTACTAAAGCGTCATTTAACAATTTTTCATATTATAGAAACAGCTTTTCATGGATGGTGTGACTGGGTCTGTATCCAAACCCGGTTCGGTTCCTGGAGCCAACGGCGTAGTTAACACTCAGCCTCTTGCAGTTAACACTCAGCCTCTTAACTGGGAGTGGCCCTGGAGCAAGTCGCTGGAATGTTCAAGCTCCGCGTCACTCATCGGTACCAAGTTGATGATCTCTGCCTAGGGTTCTTCGCCACCCTCAGGCTCAAGTCCCAGGAGGCCTCCTCCGCTGACTTGGGTGAACAGCTCTGAGTTCCGGAGAGGGTTCGGTCTGCGGAGAAGCGCGCGAGAGACAAGCATCCTCAAGGTTCTGGTACAAAATTTGGAAAATGACCTGGCGTTGAAATCTTTACTCCTCGTTTAAAAAGACCATCGAAAGGGAAAAAATAAAAGAAATTGCAGTTTATATTTTTGTTATCCCATGAAAAATTAGCTGCAGTGTTTTCCTCTTCATGCCAAAGAGATTAATATTTACGGTGAAGACTTTTCCAGGAAGTCGTGGTTTTCTGGGGCCCTGCCTCTGAGCCTTTTGTTTCCTCCTTTTTAAAAACACCGGATGAAAGACCCAGTGTGCCTTGGATCGCAGAGCGCGGCCGCATGTCTGCTTTGA"}, "B7": {"name": "SEQ_ID_#948 (nucleic acid, listed as Homo sapiens)", "DNA": "AGAGGCGGGCTTCCCTCGGAAAACGGAGGGTTGAAACCCAGAAAGCTCCTCGGAGCCCTTCTGGGGTTCGGGCGATCTGGGCAGAGAACTCTCGGGTGGCAAGGAATTAAGGGCAGCGCGAACGACGGTCTCTAGACAAGTATGAAGCCTCCCCTGAGTGTGTCCGGCGCTCAGGGGGTGGACCGGGGTGTTGGTTTCAAGGAGGGGGCCATCGTTTGCACCACGGCGTCCAGAAATACTCATCCTTTGCCCTTCGGGGAGGCAACAGAGCAGCCAACTGACTGTTCTGGCCAAAGAGACTGGAGATCCAGTATCAGCAAGCTACTTTCTTGGTAAACCTCCATTTCCCAATGCTCATCTTTGTCCTCTACCCCCACCCATCCCAAGGCAAATGATGAAAACATCTATTGGATCCAGCCTTTGCTATCTTCTCCATGCTGCTCATAGTGGGTCTAGCAATGTCCCATTCTCGGTAATGTTTGGTAGGTCTAAAACATCCTCACGAAATGTTCCCCAAATGTTCTGCTCCAGCTGAGCAACTAATAACAATGGGAAGATGCAGAAAAAAAATGCATGGAGCATAATGTTAGTTTTGGGACTCGTCAGTGGCAACGTTTTAGAGATGCCATGAAGAATTCCTGGTAATAATCCTTCTTCCTACAGCATTTAGCAATGAATACTATGGGATTATGGCTAAAAGATGGTCAAGACTGCCTCAGCCATTAGGATCAGAATTCTAAGTTCCAAAGAAGAGCAAACTCAAGAGGATTTCCTCAGGCCTCTGACTATAGATGCTGCCTGGGGAGAACAGGTGCTACACTCAAAACATTCTCATTTTATTTATATCCTCCCTGAACTAGTACCCAACTCCATAACCCCAGACTCAAATAACAGAAATAAAAGCCATCTCACTGATTATAAGCTCTCTAGTTATTACAAAAATAAATAAGCATCAATCAACCAACAGGCATCAGAATGAGAAAATCACTGATTTGAGACATTCAGGCTGCAGGAAAAGAACACTTTTTGTTAATATGTAACTATATCTTCAGTAGTACAGAAAAATGAGAAGAACGAGAGTTCTTACCTGGATTTGCGGCTCACTTAAAGTAGAGCACCTGAGATGCTGGGAAATCATAAAGATAAATAACCAATCTAACAAATTCCTGCCATGAGACCAAAGTGATCCTTGACTACTCTATTAGTAAGCGACTCTGAGCCAAGAGTACGAACCTGTAAGTGGAGTGGTGGTTGGCCCATTAGAAATCTCTGAAAGATCTAAACATGACAGTTACCTTCCTACTGGACTCATACTTCTCAATTCCCTCTCCTAAAAGAATACTTTTGGGCTGGCCCCAGTGGCTCACACCTGTAATCTCGGCACTTTGGGAAGCCAAGGTGGGAGGATTGCTTGAGGACAAGAGTTTGAGACCAGCTCGGTGGAAACATAGCACCATCCATGTCTCTACC"}, "B8": {"name": "SEQ_ID_#953 (nucleic acid, listed as Homo sapiens)", "DNA": "TGGTTTCGGTCTATTTATCCAGGGACACCACAGCTTTGGAGGCAGCAAACATGCCCATTTGTTACTATTTGCAAAGATGGTGTACACCAAACATGGGCTTTCCGTAAACAAATTAAAAAGTAATAAAGTGGCCCCATCTGCATACTAGAGCAATGTGCTTCCATTTTAATGAAGCTTGCTATAGAAAAGCCATTTGATGGCTTGTCAAAAGCGTGAATGCCTGTGGCTGAACGTGGAAGTATGCTGTGGTGCAAAGACGTAGTCCTTTCTTCCTCCAGTATGCACGGGGCACCTGCCACACCTGCTGCAAGGACCTGGTCCTGCCCCTAGGCCATCTGCTACGCCAAGGAGACCCAGGTCTTTCCAGTTTCTACCAGGCCCTTTAATGCTCTATCCTGTGGCCCACCCAAGGTTGCAGAGCTGGTAAGCTCTGGAGGTTGAACACAGGCAGTCTGGGCAGAGTGCCTGCTCACTGTCCTGCCTCTCCT"}}}
{"test_system": "EE transcriptome", "assay": "Genome-wide microarray transcript profiling of esophageal biopsies, EE patients vs normal individuals (EE transcriptome)", "conditions": "transcript level in esophageal biopsies of EE patients compared to normal individuals (NL); Affymetrix Human Genome U133 plus 2; p<0.01; >1 up-regulated, <1 down-regulated", "method": "Esophageal tissue obtained from patients previously diagnosed with EE was analyzed. Diagnosis was based on analysis of excised tissue from endoscopic biopsy. Tissues from patients with EE, as well as patients not having EE (controls) were subjected to genome-wide microarray transcript profiling (Affymetrix GeneChip). All work was performed at the Core facility at Children's Hospital Medical Center (Cincinnati Ohio).\nBriefly, RNA quality was first assessed using the Agilent bioanaiyzer (Agilent Technologies, Palo Alto Calif.). Only mRNA having a ratio of 28S/18S between 1.3 and 2 were subsequently used. RNA was converted to cDNA with Superscript choice for cDNA synthesis (Invitrogen, Carlsbad Calif.) and subsequently converted to biotinylated cRNA with Enzo High Yield RNA Transcript labeling kit (Enzo Diagnostics, Farmingdale N.Y.). After hybridization to the GeneChip (Affymetrix, Santa Clara Calif.), the chips were automatically washed and stained with streptavidin-phycoerythrin using a fluidics system. The chips were scanned with a Hewlett Packard GeneArray Scanner. Over 30,000 unique genes were screened.\nLevels of gene transcripts were determined from data image files, using algorithms in the Microarray Analysis Suite software (Affymetrix). Levels from chip to chip were compared by global scaling. Each gene was typically represented by a probe set of 16 to 20 probe pairs. Each probe pair consisted of a perfect match oligonucleotide and a mismatch oligonucleotide that contained a one base mismatch at a central position. Two measures of gene expression were used, absolute call and average difference. Absolute call is a qualitative measure in which each gene is assigned a call of present, marginal or absent, based on the hybridization of the RNA to the probe set. Average difference is a quantitative measure of the level of gene expression, calculated by taking the difference between […] of every probe pair and averaging the differences over the entire probe set. Data were normalized and an EE transcriptome gene list was created with results having p<0.01 (Welch t-test with or without false rate discovery) and ≥1.5-fold change.\nFor evaluation of EE using clinical and/or physical assessment, biopsy tissues (obtained from the distal esophagus during routine endoscopy) were submerged in formalin for routine pathological analysis with hematoxylin and eosin staining. Diagnosis was established based on the maximum eosinophil count per high power field (hpf) and basal layer expansion according to method known in the art (e.g., established criteria in Rothenberg et al., Pathogenesis and clinical features of eosinophilic esophagitis. J Allergy Clin Immunol 108 (2001) 891; Attwood et al., Esophageal eosinophilia with dysphagia. A distinct clinicopathologic syndrome. Dig Dis Sci 38 (1993)109; Fox et al., Eosinophilic esophagitis: its not just kid's stuff. Gastrointest Endosc 56 (2002) 26, each of which is expressly incorporated by reference herein in its entirety. Normal individuals (NL), n=13, served as a control and were defined as having 0 eosinophils/hpf and no basal layer expansion. Individuals with EE (n=76) were defined as having >24 eosinophils/hpf and extensive basal layer hyperplasia (expansion to about >⅓ of epithelium).\nThe data were analyzed by cluster analysis and ordered (standard correlation (A) and distance (B)) using Genespring software. […] Each column represented a separate individual and each line a gene. RNA from each patient was subjected to chip analysis using Affymetrix Human Genome U133 GeneChip plus 2."}
{"molecule": "B1", "Fold Change": 0.665}
{"molecule": "B2", "Fold Change": 0.643}
{"molecule": "B3", "Fold Change": 0.64}
{"molecule": "B4", "Fold Change": 0.639}
{"molecule": "B5", "Fold Change": 0.638}
{"molecule": "B6", "Fold Change": 0.637}
{"molecule": "B7", "Fold Change": 0.629}
{"molecule": "B8", "Fold Change": 0.627}
